Experimental data taken from the supplement of paper PMC7877785.
± gives the uncertainty stated by the source.

Test: self-splicing fitness, log relative to wild type (ln ratio); higher = more splicing; Tetrahymena group I intron in knt gene, E. coli kanamycin selection, DiMSum; sequences stand for … in CUCUCU…GGAGGGAAAAGUUAUCAGGCAUGCACCUGGUAGCUAGUCUUUAAACCAAUAGAUUGCAUCGGUUUAAAAGGCAAGACCGUCAAAUUGCGGGAAAGGGGUCAACAGCCGUUCAGUACCAAGUCUCAGGGGAAACUUUGAGAUGGCCUUGCAAAGGGUAUGGUAAUAAGCUGACGGACAUGGUCCUAACCACGCAGCCAAGUCCUAAGUCAACAGAUCUUCUGUUGAUAUGGAUGCAGUUCACAGACUAAAUGUCGGUCGGGGAAGAUGUAUUCUUCUCAUAAGAUAUAGUCGGACCUCUCCUUAAUGGGAGCUAGCGGAUGAAGUGAUGCAACACUGGAGCCGCUGGGAACUAAUUUGUAUGCGAAAGUAUAUUGAUUAGUUUUGGAGUACUCGUGGUCG
Method in brief: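 Colonies from six replicate transformations of E. coli BL21(DE3) were pooled and amplicon-sequenced on an Illumina HiSeq 2500. The library placed an intron with all eight P1ex-region nucleotides randomised inside the knt kanamycin-resistance gene on pET-22b(+), and cells grew overnight at 37°C or 30°C on LB agar with or without 25 μg/mL kanamycin (plus 100 μg/mL carbenicillin, 50 μM IPTG, 0.2% rhamnose). Fitness is the DiMSum error-weighted combination of wild-type-normalised replicate fold changes, kanamycin versus none.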

Sequence | self-splicing fitness (ln) (30 °C) | self-splicing fitness (ln) (37 °C)
GGGUAGCAAUAUUACGCAUG | -1.68 ± 0.18 | -2.73 ± 0.32
UUGGAGCAAUAUUACGCGAA |  | -1.4 ± 0.29
CCGUAGCAAUAUUACGUGUA | -3.5 ± 0.2 | -3.25 ± 0.29
CCUGAGCAAUAUUACGACUG | -1.38 ± 0.16 | -1.25 ± 0.19
AUCUAGCAAUAUUACGAAGG | -3.42 ± 0.3 | -2.01 ± 0.32
AAACAGCAAUAUUACGUACG | -2.54 ± 0.11 | -0.985 ± 0.11
UAACAGCAAUAUUACGAGUA | -0.835 ± 0.099 | 0.134 ± 0.099
AGAGAGCAAUAUUACGUCUA | -2.48 ± 0.35 | -0.494 ± 0.26
AAUUAGCAAUAUUACGUCCA | -0.685 ± 0.087 | -1.2 ± 0.096
GCAUAGCAAUAUUACGGCUG | -1.97 ± 0.16 | -1.22 ± 0.18
AUCAAGCAAUAUUACGGGCU | -1.86 ± 0.079 | -0.884 ± 0.087
GCCUAGCAAUAUUACGCUGU | -0.847 ± 0.09 | 0.254 ± 0.096
CGUCAGCAAUAUUACGUUUU | -3.25 ± 0.098 | -1.55 ± 0.094
UGGAAGCAAUAUUACGACUC | -0.463 ± 0.11 | -0.577 ± 0.16
CAAGAGCAAUAUUACGACUA | -3.01 ± 0.23 | -2.47 ± 0.21
CGAAAGCAAUAUUACGGUGG | -0.576 ± 0.046 | 0.0831 ± 0.066
AUUGAGCAAUAUUACGGGAG | -3.67 ± 0.26 | -2.33 ± 0.27
GCUGAGCAAUAUUACGCGAG | -2.52 ± 0.16 | -1.83 ± 0.23
UAGGAGCAAUAUUACGUUCA | -2.05 ± 0.16 | -1.02 ± 0.19
AAUUAGCAAUAUUACGGGCG | -0.93 ± 0.12 | -1.36 ± 0.13
CUCAAGCAAUAUUACGCUAC | -4.12 ± 0.29 | -2.23 ± 0.24
UAAUAGCAAUAUUACGCGCA | -1.13 ± 0.086 | 0.129 ± 0.1
GUUAAGCAAUAUUACGAAAA | -1.13 ± 0.27 | -2.1 ± 0.24
GCUAAGCAAUAUUACGGGAG | -3.12 ± 0.34 | -1.28 ± 0.17
AUUGAGCAAUAUUACGUACU | -2.1 ± 0.28 | -2.57 ± 0.49
GUAAAGCAAUAUUACGAAAU | -0.837 ± 0.078 | -0.128 ± 0.1

Sequence | self-splicing fitness (ln) (30 °C) | self-splicing fitness (ln) (37 °C)
UUCGAGCAAUAUUACGAUGU | -3.71 ± 0.46 | -2.7 ± 0.25
GCGAAGCAAUAUUACGGACU | -0.302 ± 0.12 | 0.296 ± 0.13
UCUUAGCAAUAUUACGGGUC | -3.28 ± 0.32 | -2.68 ± 0.41
GAAAAGCAAUAUUACGGGCC | -1.09 ± 0.14 | -1.37 ± 0.17
UCAAAGCAAUAUUACGUACA | -1.2 ± 0.14 | -0.562 ± 0.16
UGUAAGCAAUAUUACGGGUG | -0.874 ± 0.18 | -0.00955 ± 0.19
AGUCAGCAAUAUUACGUUGC |  | -2.83 ± 0.3
GGGAAGCAAUAUUACGCCGA | -1.78 ± 0.17 | -0.238 ± 0.12
GGCUAGCAAUAUUACGCCGG | -2.34 ± 0.21 | -2.27 ± 0.35
AGUUAGCAAUAUUACGUUUC | -3.37 ± 0.34 | 
GCCAAGCAAUAUUACGAAUA | -2.96 ± 0.17 | -2.72 ± 0.18
CCUUAGCAAUAUUACGUGUC | -2.66 ± 0.26 | -0.776 ± 0.21
UCUGAGCAAUAUUACGCUUA | -2.24 ± 0.26 | -2.38 ± 0.45
GACCAGCAAUAUUACGCAGC | -0.913 ± 0.11 | -0.292 ± 0.13
UGUCAGCAAUAUUACGAUUA | -0.198 ± 0.061 | 0.519 ± 0.088
ACCCAGCAAUAUUACGGUGG | -3.57 ± 0.15 | -2.76 ± 0.18
UGCCAGCAAUAUUACGUAAG | -2 ± 0.067 | -1.24 ± 0.083
GACGAGCAAUAUUACGCUAG | -3.19 ± 0.19 | -2.47 ± 0.18
GCUAAGCAAUAUUACGUCAG | -3.84 ± 0.28 | -2.21 ± 0.22
UAAUAGCAAUAUUACGCGUU | -4.21 ± 0.17 | -2.66 ± 0.15
ACAGAGCAAUAUUACGAGCG | -3.08 ± 0.14 | -2.51 ± 0.19
UCCAAGCAAUAUUACGCAAC | -4.2 ± 0.37 | -3.04 ± 0.31
CCUCAGCAAUAUUACGAGUC | -3.88 ± 0.34 | -2.27 ± 0.26
AAAAAGCAAUAUUACGGCCU | -0.199 ± 0.069 | 0.253 ± 0.095
CUAUAGCAAUAUUACGCAGA | -2.65 ± 0.16 | -1.2 ± 0.14
CCUUAGCAAUAUUACGGGAU | -3.68 ± 0.29 | -2.68 ± 0.27

Sequence | self-splicing fitness (ln) (30 °C) | self-splicing fitness (ln) (37 °C)
GGGCAGCAAUAUUACGGUCU | -3.22 ± 0.26 | -1.03 ± 0.24
AGUCAGCAAUAUUACGUAGG | -3.1 ± 0.12 | -1.64 ± 0.14
UACUAGCAAUAUUACGGAUU | -2.82 ± 0.12 | -1.56 ± 0.13
AGCGAGCAAUAUUACGGCUG | -1.47 ± 0.12 | -0.625 ± 0.15
UUCAAGCAAUAUUACGUGCC | -0.891 ± 0.15 | -0.528 ± 0.17
CUGAAGCAAUAUUACGCCGC | -3.17 ± 0.35 | 
UCACAGCAAUAUUACGCCUG | -1.21 ± 0.11 | -0.438 ± 0.12
GGUAAGCAAUAUUACGAGCG | 0.017 ± 0.17 | 0.512 ± 0.17
UGGGAGCAAUAUUACGUUCG | -1.34 ± 0.22 | -0.604 ± 0.3
CGACAGCAAUAUUACGCGAC |  | -2.98 ± 0.26
UUAAAGCAAUAUUACGCUAU | -3.01 ± 0.14 | -0.748 ± 0.1
AAGAAGCAAUAUUACGAUAA | -1.11 ± 0.12 | -1.07 ± 0.15
CAGUAGCAAUAUUACGAGGU |  | -2.88 ± 0.34
CGAGAGCAAUAUUACGCCAA | -1.49 ± 0.2 | -1.99 ± 0.38
CCUUAGCAAUAUUACGGGUC | -4.43 ± 0.3 | -2.86 ± 0.38
AAGUAGCAAUAUUACGAGCU | -0.679 ± 0.057 | -0.289 ± 0.087
UCGGAGCAAUAUUACGCGUG | 0.284 ± 0.17 | -0.281 ± 0.17
CAACAGCAAUAUUACGAGCA | -2.97 ± 0.15 | -1.01 ± 0.11
GUAGAGCAAUAUUACGGGGG | -2.82 ± 0.26 | -2.22 ± 0.3
CUUAAGCAAUAUUACGAGUA | -3.63 ± 0.24 | -1.94 ± 0.2
GAGCAGCAAUAUUACGGAAU | -3.37 ± 0.22 | -2.08 ± 0.2
GUGUAGCAAUAUUACGCGCU |  | -1.27 ± 0.18
UACAAGCAAUAUUACGGCGG | -0.215 ± 0.065 | 0.218 ± 0.084
CGGAAGCAAUAUUACGUAUU | -3.43 ± 0.28 | -3.37 ± 0.37
UCGAAGCAAUAUUACGUAAG | -1.85 ± 0.13 | -0.0359 ± 0.13
